Experimental findings from paper PMC8860585, “TRIM21 suppresses CHK1 activation by preferentially targeting CLASPIN for K63-linked ubiquitination” (Nucleic Acids Research, 2022) are described below.

In the experiment the target is T1, HIS-TRIM21 (human, UniProt P19474 1-475).
T1 construct: human TRIM21 cDNA (full length cDNA by the plasmid paragraph) cloned into pET28a; source: bacterially purified (pET28a)
The experiment in a line: pull-down; GST-CLASPIN 301–630aa immobilized on Glutathione Sepharose 4B beads incubated with HIS-TRIM21 for 4 h at 4°C; HIS-TRIM21 by immunoblot. The conditions noted are these: both partners purified.

T1 sequence (P19474 whole entry): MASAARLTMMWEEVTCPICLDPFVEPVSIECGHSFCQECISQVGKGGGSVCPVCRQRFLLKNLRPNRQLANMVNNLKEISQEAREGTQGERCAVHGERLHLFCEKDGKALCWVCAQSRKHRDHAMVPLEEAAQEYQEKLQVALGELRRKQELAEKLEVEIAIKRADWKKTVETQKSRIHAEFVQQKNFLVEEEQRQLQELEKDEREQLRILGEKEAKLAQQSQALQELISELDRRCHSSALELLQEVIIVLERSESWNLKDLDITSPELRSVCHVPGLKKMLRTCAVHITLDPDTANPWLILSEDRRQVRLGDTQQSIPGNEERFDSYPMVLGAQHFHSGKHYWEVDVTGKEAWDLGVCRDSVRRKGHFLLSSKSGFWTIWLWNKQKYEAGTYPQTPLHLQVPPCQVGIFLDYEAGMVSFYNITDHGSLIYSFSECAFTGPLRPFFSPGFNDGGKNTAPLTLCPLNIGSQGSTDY

B1: GST-CLASPIN 301–630aa (domain or fragment, human, UniProt Q9HAW4 301-630, looked up)
chain: ALNLPYHMPENKTIHDFFKRKPRPTCHGNAMALLKSSKYQSSHHKEIIDTANTTEMNSDHHSKGSEQTTGAENEVETNALPVVSKETQIITGSDESCRKDLVKNEELEIQEKQKQSDIRPSPGDSSVLQQESNFLGNNHSEECQVGGLVAFEPHALEGEGPQNPEETDEKVEEPEQQNKSSAVGPPEKVRRFTLDRLKQLGVDVSIKPRLGADEDSFVILEPETNRELEALKQRFWKHANPAAKPRAGQTVNVNVIVKDMGTDGKEELKADVVPVTLAPKKLDGASHTKPGEKLQVLKAKLQEAMKLRRFEERQKRQALFKLDNEDGFEE
notes: human CLASPIN F2 region, residues 301–630; also called GST fusion of the CLASPIN F2 region (301–630aa); source: bacterially purified (pGEX4T-1), immobilized on Glutathione Sepharose 4B
As for B1, the binding result is listed as “binds”.
